The record followed here is US20220227882A1 (TRUSTEES OF TUFTS COLLEGE, published 2022).

For test [1], the target named is T1, Full-length human ADAM8 on cells (HEK293-ADAM8 stable or transfected cells); also endogenous ADAM8 of breast … (human, UniProt P78325 17-824).
T1 sequence: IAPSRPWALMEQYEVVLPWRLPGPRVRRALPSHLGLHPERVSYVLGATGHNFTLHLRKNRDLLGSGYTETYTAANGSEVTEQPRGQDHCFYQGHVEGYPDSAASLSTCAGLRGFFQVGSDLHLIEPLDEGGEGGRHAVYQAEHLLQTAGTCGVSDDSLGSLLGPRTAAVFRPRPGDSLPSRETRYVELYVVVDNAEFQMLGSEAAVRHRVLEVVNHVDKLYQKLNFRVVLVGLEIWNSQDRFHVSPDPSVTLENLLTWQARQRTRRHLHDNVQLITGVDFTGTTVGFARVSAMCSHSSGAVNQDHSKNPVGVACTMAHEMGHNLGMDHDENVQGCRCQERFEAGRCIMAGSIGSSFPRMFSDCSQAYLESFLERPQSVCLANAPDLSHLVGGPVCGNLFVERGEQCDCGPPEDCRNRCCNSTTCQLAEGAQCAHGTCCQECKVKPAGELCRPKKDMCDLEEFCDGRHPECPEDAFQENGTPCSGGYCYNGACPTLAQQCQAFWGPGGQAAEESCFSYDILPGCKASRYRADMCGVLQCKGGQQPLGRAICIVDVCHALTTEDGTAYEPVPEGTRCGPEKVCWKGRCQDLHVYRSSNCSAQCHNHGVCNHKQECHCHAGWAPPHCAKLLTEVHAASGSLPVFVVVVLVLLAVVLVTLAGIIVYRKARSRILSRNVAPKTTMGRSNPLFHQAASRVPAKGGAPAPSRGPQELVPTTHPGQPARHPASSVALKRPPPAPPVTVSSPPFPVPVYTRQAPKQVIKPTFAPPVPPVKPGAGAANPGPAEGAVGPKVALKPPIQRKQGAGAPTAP
In words: cell-based or functional assay.

Test [2] concerns the target T2, Recombinant human ADAM9 (R&D Systems, 939-AD-020) (human, UniProt Q13443 29-697).
T2 sequence (looked up): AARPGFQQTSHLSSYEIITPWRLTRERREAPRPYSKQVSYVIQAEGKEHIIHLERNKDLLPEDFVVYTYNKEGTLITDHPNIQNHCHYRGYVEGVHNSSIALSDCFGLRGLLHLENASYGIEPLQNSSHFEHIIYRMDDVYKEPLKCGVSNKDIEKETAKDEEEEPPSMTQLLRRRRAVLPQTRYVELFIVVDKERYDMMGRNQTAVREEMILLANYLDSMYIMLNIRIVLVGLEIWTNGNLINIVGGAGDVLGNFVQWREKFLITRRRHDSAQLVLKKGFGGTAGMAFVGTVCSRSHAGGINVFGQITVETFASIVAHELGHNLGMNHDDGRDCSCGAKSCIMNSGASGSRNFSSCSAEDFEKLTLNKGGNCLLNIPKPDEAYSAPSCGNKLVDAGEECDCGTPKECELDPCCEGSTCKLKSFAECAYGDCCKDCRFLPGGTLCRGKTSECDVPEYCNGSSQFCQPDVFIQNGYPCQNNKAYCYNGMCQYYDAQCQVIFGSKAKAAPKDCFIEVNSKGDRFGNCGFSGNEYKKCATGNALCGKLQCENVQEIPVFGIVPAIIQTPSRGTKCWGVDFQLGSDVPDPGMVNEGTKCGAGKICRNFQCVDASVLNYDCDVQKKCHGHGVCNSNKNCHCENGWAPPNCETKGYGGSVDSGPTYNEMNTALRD
Nature of the test: ELISA, coated recombinant ADAM9. For orientation: An ELISA detects its analyte on a solid surface through an enzyme-linked reagent.

Test [3] addresses T3, Recombinant human ADAM15 (Sino Biological, 10517-H08H) (human, UniProt Q13444 18-696).
T3 sequence (looked up): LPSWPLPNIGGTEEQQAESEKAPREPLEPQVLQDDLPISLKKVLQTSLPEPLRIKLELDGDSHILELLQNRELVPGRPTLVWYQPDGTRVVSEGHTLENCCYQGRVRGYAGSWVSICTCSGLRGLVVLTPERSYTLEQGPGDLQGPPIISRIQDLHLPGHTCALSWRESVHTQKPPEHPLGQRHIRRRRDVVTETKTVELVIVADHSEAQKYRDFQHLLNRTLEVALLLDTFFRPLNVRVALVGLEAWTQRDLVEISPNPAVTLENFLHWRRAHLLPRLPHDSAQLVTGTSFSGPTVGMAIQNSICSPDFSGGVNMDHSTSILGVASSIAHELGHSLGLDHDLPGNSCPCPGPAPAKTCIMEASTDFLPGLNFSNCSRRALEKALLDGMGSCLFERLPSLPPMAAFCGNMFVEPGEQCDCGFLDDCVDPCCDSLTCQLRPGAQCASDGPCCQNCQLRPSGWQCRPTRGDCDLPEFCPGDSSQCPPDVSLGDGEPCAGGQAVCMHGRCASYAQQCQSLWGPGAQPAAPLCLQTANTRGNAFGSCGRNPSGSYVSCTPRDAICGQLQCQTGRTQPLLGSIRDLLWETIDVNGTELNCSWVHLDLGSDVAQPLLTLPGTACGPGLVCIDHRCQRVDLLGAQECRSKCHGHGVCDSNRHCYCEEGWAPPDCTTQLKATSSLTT
Nature of the test: ELISA, coated recombinant ADAM15.

Test [4] concerns the target T1, Full-length human ADAM8 on cells …. In words: FACS, HEK293-ADAM8 cells, antibody 0.1 µg/ml. In general terms: A flow cytometer gives signals particle by particle.

B1: ADP13 (antibody, IgG1, V domains shown)
VH: EVQLQQSGPEMVKPGTSVKISCKASGYTFTDYYINWVKQSHGKSLEWIGDISPNIGGATYNPKFKGKAILTVDKSARTAYMELRSLTSEDSAVYCCTRGGSSYPYFYAMDYWGQGTSVTVSS
VL: DIVMSQSPSSLAVSVGEKVTMSCKSSQSLLYSSNQKKYLAWYQQKPGQSPKLLIYWASTRESGVPDRFTGSGSGTDFTLTISSVKAEDLAVYYCQQFYSYPYTFGGGTKLEINR
notes: also called mADP13; mouse ADP13
Consider B1, for which, in test [1], the “% inhibition of CD23 cleavage (MP activity), HEK293 cells co-expressing CD23 and ADAM8, antibody 20 µg/ml” value (“% inhibition of CD23 cleavage” below) was 79.1 % inhibition; the “% inhibition of transendothelial migration of MDA-MB-231 cells through HUVEC, antibody 20 µg/ml” value came out at 54.5 % inhibition. In test [2], the “OD 450nm” value came out at 0.12 OD450nm and the binding result is given as “no binding (tested: 1 µg/ml)”. Besides, in test [3], the “OD 450nm” value was 0.09 OD450nm and the binding result was “no binding (tested: 1 µg/ml)”. In addition, the MFI in test [4] was determined as 7.1 MFI.

B2: ADP3 (antibody, IgG1, V domains shown)
VH: EVKLEESGGGLVQPGGSMKLSCAASGFTFSDAWMDWVRQSPEKGLEWVAEIRGKVNNLATYYVESVKGRFTISRDDSKSSVYLQMNSLRAEDTGIYYCLGRYDATYAMDYWGQGTSVTVSS
VL: DVVMTQTPLSLPVSLGDQASISCRSSQSLVHSDGNTYLHWYLQKPGQSPKLLIYKLSNRFSGVPDRFSGSGSGTDFTLKISRVEAEDLGVYFCSQSTHVPWTFGGGTKLEIK
For B2, in test [1], the “% inhibition of CD23 cleavage” value is 79.9 % inhibition; the “% inhibition of transendothelial migration of MDA-MB-231 cells through HUVEC, antibody 20 µg/ml” value is 44.5 % inhibition. For the same molecule, in test [2], the “OD 450nm” value turned out to be 0.15 OD450nm. For the same molecule, in test [3], the “OD 450nm” value amounted to 0.17 OD450nm and the binding result was “no binding (tested: 1 µg/ml)”. Also, the MFI in test [4] was determined as 51.8 MFI.

B3: ADP2 (antibody, V domains shown)
VH: EVKLVESGGGLVQPGGSLSLSCAASGFSFPDYYMSWVRQPPGKALEWLGFIRDSANGYTTEYIASVKGRFTFSRDNSQSILYLQMNALRAEDSATYYCARYSRYYGMDYWGQGTSVTVSS
VL: SIVMTQTPKILLVSAGDRVTITCKASQTVNYDVAWYQQKPGQSPKPVIYFASNRYTGVPDRFTGSGFGTDFTFTISTVQAEDLAVYFCQQDYSAPWTFGGGTKLEIK
notes: also called mADP2; mouse ADP2
On to B3, for which, in test [1], the “% inhibition of CD23 cleavage” value turned out to be 62.6 % inhibition; the “% inhibition of transendothelial migration of MDA-MB-231 cells through HUVEC, antibody 20 µg/ml” value turned out to be 37.6 % inhibition. For the same molecule, in test [2], the “OD 450nm” value amounted to 0.07 OD450nm and the binding result is reported as “no binding (tested: 1 µg/ml)”. Moreover, in test [3], the “OD 450nm” value worked out at 0.16 OD450nm. This molecule also came in with an MFI in test [4] of 58.4 MFI.
